Consider 20 sequences from a protein production outcome set (Wang et al. 2014).
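Also: failed if final PepcDB status was selected cloned or expressed and not failed if soluble or beyond.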

This data set in a line: label from the status in PepcDB records.
Consider “MEDKFANLSLHEKTGKSSIQLNEQTGSDNGSAVKRTSSTSSHYNNINADLHARVKAFQEQRALKRSASVGSNQSEQDKGSSQSPKHIQQIVNKPLPPLPVAGSSKVSQRMSSQVVQASSKSTLKNVLDNQETQNITDVNINIDTTKITATTIGVNTGLPATDITPSVSNTASATHKAQLLNPNRRAPRRPLSTQHPTRPNVAPHKAPAIINTPKQSLSARRAVKLPPGGMSLKMPTKTAQQPQQFAPSPSNKKHIETLSNSKVVEGKRSNPGSLINGVQSTSTSSSTEGPHDTVGTTPRTGNSNNSSNSGSSGGGGLFANFSKYVDIKSGSLNFAGKLSLSSKGIDFSNGSSSRITLDELEFLDELGHGNYGNVSKVLHKPTNVIMATKEVRLELDEAKFRQILMELEVLHKCNSPYIVDFYGAFFIEGAVYMCMEYMDGGSLDKIYDESSEIGGIDEPQLAFIANAVIHGLKELKEQHNIIHRDVKPTNILCSANQGTVKLCDFGVSGNLVASLAKTNIGCQSYMAPERIKSLNPDRATYTVQSDIWSLGLSILEMALGRYPYPPETYDNIFSQLSAIVDGPPPRLPSDKFSSDAQDFVSLCLQKIPERRPTYAALTEHPWLVKYRNQDVHMSEYITERLERRNKILRERGENGLSKNVPALHMGGL”, for which the protein production result is reported as “failed”.
To “MFKNLIWLKEVDSTQERLKEWNVSYGTALVADRQTKGRGRLGRKWLSQEGGLYFSFLLNPKEFENLLQLPLVLGLSVSEALEEITEIPFSLKWPNDVYFQEKKVSGVLCELSKDKLIVGIGINVNQREIPEEIKDRATTLYEITGKDWDRKEVLLKVLKRISENLKKFKEKSFKEFKGKIESKMLYLGEEVKLLGEGKITGKLVGLSEKGGALILTEEGIKEILSGEFSLRRS” belongs “not failed”.
For “MSLTHVIWDMGETLNTVPNTRYDHHPLDTYPEVVLRKNAKETLEKVKQLGFKQAILSNTATSDTEVIKRVLTNFGIIDYFDFIYASNSELQPGKMEKPDKTIFDFTLNALQIDKTEAVMVGNTFESDIIGANRAGIHAIWLQNPEVCLQDERLPLVAPPFVIPVWDLADVPEALLLLKKISEGHHHHHH”, the protein production entry was “not failed”.
As for “MRGYVLGLLALNLLTLIWGTTFVVVKGAVEGMAPSLLILLRFGVAALFFLPWLFRLPVGVFGPGMELAFWLFVGYASQTLGLAHTSASRSAFITALSVVLVPLLLRLAGREVGPAFLAAFLALAGVGLLSYDPYQPPFNVGDLWTFLTALAYALYIVRLEVHARAFPSLPLTAVQVLGTALFALPWVLAEGGAWGPVAWGAVLYLGVVATALTTWLQTWGQRHVPAPQAAILYTLEPVWAAFFAYLALGERLSPSGLLGALLVLLATLLAIRRSPA”, the protein production entry is recorded as “failed”.
As to “MNGMLLSRIKKKAMELAEDLKLVDFSFGLPYTWVLVEGIEGRALGVAMTLPEEVQRYTNSIEEPSLLEFIDKADSLNIIERTLGVAAINAVSQYYIDLREAKWIDVTELIQQDEIKRIAIIGNMPPVVRTLKEKYEVYVFERNMKLWDRDTYSDTLEYHILPEVDGIIASASCIVNGTLDMILDRAKKAKLIVITGPTGQLLPEFLKGTKVTHLASMKVTNIEKALVKLKLGSFKGFESESIKYVIEV”, the protein production entry was “not failed”.
As to “MSSEKERKKKIFFQRILTVVFLGTFFYSVYELGDIFMDYYENRKVMAEAQNIYEKSPMEEQSQDGEVRKQFKALQQINQEIVGWITMDDTQINYPIVQAKDNDYYLFRNYKGEDMRAGSIFMDYRNDVKSQNRNTILYGHRMKDGSMFGSLKKMLDEEFFMSHRKLYYDTLFEGYDLEVFSVYTTTTDFYYIETDFSSDTEYTSFLEKIQEKSLYKTDTTVTAGDQIVTLSTCDYALDPEAGRLVVHAKLVKRQ”, the protein production result is listed as “not failed”.
To “SYETSQHNLDAVEAVLSRLQKQTGEMAAYMVPVGYRALCVSQRESMQALRCSFVQGQSQPLLRGASSKVMLAYMPAARCEKILRYFGEDPTLDKWQSEFEKIRRHGYAVSTSEIDPGVSGISAPVMKGSKLIGAISVMAPAHRVESNKQRIILHVLQAARALPPER” belongs “not failed”.
Take “MATDTTVQLRAGWQGRFYEDFAVGDVYKHPYGRTVTETDNVWFTNLTMNANPMHFNAAYASGTEFDERLVNGLFVIALSVGMSVVDVSANATANLGYDDIQHHAPVFHGDTLFAESEVLSKRESESRPHVGMVTTELRTYTQDGELVLSLERTPMVRKRGLEHHHHHH”: the protein production entry was “not failed”.
As to “MTAIRFDHVDVIFGTHTKEALKLLDQGLGRAEILKRTGQVLGVEDACLDVNRGEICVLMGLSGSGKSSLLRCINGLNKVSRGKLLIEHEGSQVDIANCSPATLKAMRTKRIAMVFQKFALMPWLTVAENVGFGLEMQGRPAAERKKLIDEKLELVGLSQWRDKRPDSLSGGMQQRVGLARALAMDGDILLMDEPFSALDPLIRQQLQDELLVLQRQLHKTIVFVSHDLDEALKIGTRIAIMKDGRIIQHGKPEEIVLSPADDYVRTFVAHTNPLNVLCGQSLMRGLDQCIRQNDEICFDQGRDCWIGLSEGDVLKGARQGSNVIDLQRWRQGDPVEKLRREPTLVDVSIRMRDALQIRYQTGHKLVLQEQDRVVGVLGDSELYHALLGKN”, the protein production entry is “failed”.
On to “MADDDVLFEDVYELCEVIGKGPFSVVRRCINRETGQQFAVKIVDVAKFTSSPGLSTEDLKREASICHMLKHPHIVELLETYSSDGMLYMVFEFMDGADLCFEIVKRADAGFVYSEAVASHYMRQILEALRYCHDNNIIHRDVKPHCVLLASKENSAPVKLGGFGVAIQLGESGLVAGGRVGTPHFMAPEVVKREPYGKPVDVWGCGVILFILLSGCLPFYGTKERLFEGIIKGKYKMNPRQWSHISESAKDLVRRMLMLDPAERITVYEALNHPWLKERDRYAYKIHLPETVEQLRKFNARRKLKGAVLAAVSSHKFNSFYGDPPEELPDFSEDPTSS”, for which the protein production entry was “failed”.
On to “MKTTYNRWWKKKVWFGRKDMSYKVIVDSCGEFTPEMKADGGFEHVALGIQIEDTQWTDDDSLKQEELLLKIAESTSCAKTSCPSPERYMESYHCDAERIYVVTLSAELSGSYNSAVLGKNLYEEEYGEKQIHVFNSRSASVGETLIALKVQQCEKAGMTFEEVVESVECYIEEQHTYFVLENLDTLRKNGRLTGIKSLVAGALNIKPIMGSTPQGTICQKEKARGMKKALVKMADCVAADVVNAGDKILAIAHCNCEERAKEVQRLLKERFAVKSSFIVDTSGISTVYANDGGIIVVV”, for which the protein production entry is “not failed”.
Regarding “MKMMDANEIISFIQKSEKKTPVKVYIKGDLKEVTFPETVQAFVNKKSGVLFGEWSEIKTILDENSKYIVDYVVENDRRNSAIPMLDLKGIKARIEPGAIIRDHVEIGDNAVIMMNATINIGAVIGEGSMIDMNAVLGGRATVGKNCHVGAGAVLAGVIEPPSAKPVIVEDDVVIGANVVVLEGVTVGKGAVVAAGAVVTEDVPPYTVVAGTPARVIKEIDEKTKAKTEIKQELRQLNPEK”, the protein production entry is “failed”.
Consider “MQYLSILEALGGLGVFILGMKTMSEGLQKIAGDRFRRHLERIAGNRLTAALLGSTLSSLLQSSSAACIITVGFINAGLISLYQALGILLGTGIGTTLAVQFIAFKISSFALPAVFVGVCLRCFLRRRRWVNAGELILGAGLLFLGLRIMESNLQPLQEYAIVFTHQDMFVSKRIAAVLFGATLTLLVQSGSTAIAVIMALAGSSLVSFETGAAMVIGELLGTSVITAFASIGGTLEAKRTVFFYFMVNLLAVVVVMLVFPSYLSFVTYISPEDIASSAGISRVLANTHTLFSIMSAVIFLPLIGFFARTAPRIIPGSERASSVEARTVFIDPRVLNTPPIALLQARSELRRMAGISLTMYSEMVEQFFRYDARKAVGIRQKENAVDILQRDLTDFLVSLSRRELAPEASMEIPVMLQLIGELEHVADQSEAVLDYLRRKKEEKLLFSNAAMTEIRHLARTVEKLVDLAVETMDNPPPDAVEQGRSLRDDVGRQREAMLDGHIKRLSAGKCSVRAGIIYADMITAFVKIADSSVTIIETRKEFT”, for which the protein production result is given as “failed”.
Consider “MKEFRKILEDKAFFFTTLYILISFLVFKIFPDVFAVIVLMVFFTLLLDPVIRFLEKLKFGKYFSRVAALLLFFFVMVYSLYMIIPPVFNEFGSFIEFMTKVFESKIWKDYIKSPELMPVFDKIMNFLEPKLTDFLNYVFSLVTTNFVSVTTIIVFTLFGLGYTVFYIREIASFFVLIYPKSVRAEAREFFRDVYASMGRYIRVIFINAVIIGLSYWIVFEAFNLKYSAIISLWAFVTNFIPIVGVVLEYIPVLLFSLTLGVKGVLLIALFAILIHAVAFVVFIQLMKGLEKLNPVYIILSILFFGKLFGLFGSFVGVPLALFFKVFWRKFLRPLFEAG”, for which the protein production result is given as “failed”.
For “MIRVTFLPDQVSVEATAGEAWLSVAARAGVEIPTGCRMGSCGACTLELEDGQEIRACISTIAGDRDPAPLEDCPHITAYVFRDPTW”, the protein production result was “failed”.
To “MRPLISICMIVKNEAHILRQSLASFRKFTEEIIIVDTGSTDDTKEIAKEFTDFVYDFEWTGNFSDARNFAAKHATGKWILAIDADECLEEESYRKLEKQLKSPIEPIQMAQIISFTGEKGRVTTTNQMARVYKNDGTICFRGVIHEQLEAVDKHAIEAGLAEVKIYHYGYMSEIVEKQDKSDRNLRLLEKEVKNNKNSGFVHFNIGQEMNRLGNKKEALKEFSEAFRLRDNNHYIWAKLSAYHISELLEQEKRYDESLAIIEEAKVIWPNVPEFPLKKANILYVNHQLEDAKEIYKSLLENTAIDYQPIVLYEATNFMPHKMLGTIYLEEKDYTRAMTHFSKAYAENSSDYGVMFQMIMLLSKFHQPKEIFAFMERHNFISSTETGLRLLSMTTQQGYAELSELIVQSLTDVYPPVAEATEVKIATIRNVFPVISESAILFGIKEELIDAADLCLWHYENPQLPIERVMKNSDVGEIYDFIFENGPKISKKRYLFVLERAIALGKGEFADYLLALRNVYHDSINSHIADLFFQYDFADIALDFYNIVDADEVTKQGYINLINYLVDADVLDEALAIAERGIDNFSTDFRFYLWAIKIDTENRANRISEAMDEFPNNRYLAKLLDEVTMLQDTVTNNR” belongs “failed”; to “VGFLMFGNLLRECGVLDRLSQTAQNELVNIISILLGLTISIKMQADLFLNVQTL”, “failed”.
Take “MSGKNIVFLVLLLFIPVSLAAHYLEWGDLIVFITAGLAILPLAAWMGAATEEIAVVVGPTLGGLLNATFGNATELIIALVALNAGLVNVVKASITGSIIGNLLLVMGLSMLLGGLRHKEQTFQPIVARVNASAMNLAVIAILLPTAMNYTAQGIGEETLQYLSVAVAVVLILVYILTLIFSMKTHAYLYDVGVAEIETEENPHPKPNILLWSGVLLVCTLLVAVESELLVDALEVATSQLGLTALFTGVILVPIVGNAAEHATAVTVAMKDKMDLSVSVAVGSSMQIALFVAPVLVIAGWILGQPMDLDFQPFELVAVVVSVLIANSISSDGKSNWLEGTLLLAAYTVLGFAFYFHPDVGGLG”: the protein production result is reported as “failed”.
Regarding “YYLIVSQLLGDTASVKLLVPPGANPHLFSLKPSDAKTLEEADLIVANGLGLEPYLEKYREKTVFVSDFIPALLLIDDNPHIWLDPFFLKYYIVPGLYQVLIEKFPEKQSEIKQKAEEIVSGLDTVIRDSFKALLPYTGKTVVMAHPSFTYFFKEFGLELITLSSGHEHSTSFSTIKEILRKKEQIVALFREPQQPAEILSSLEKELRMKSFVLDPLGVNGEKTIVELLRKNLSVIQEALK”, the protein production entry was “not failed”.
For “MQDDVLAKELADKTSKADIDTDAQTVTRLIADEIDTAKQAAESDITQRSRFIETLRQYAGGGSAMAALITRLGYSKADILHLAELWAQERDPELNFIVGSLYDSGFVEVDDKEARSLQWFRKAAELGQADAQNILGYFYLNGKRGIKRDLQKGGQWYELAAAQGNVDALINLGEIYYSGTQVPLDYARAFEFFERAAKMGKSRALNYLAWMYTNGQFVDTDCRKAAELFAQGRTSFADDPHFQVTCEKDRQARAEAVAMREKNLPKLTFNRDRVFGASQGSGYACELEFVVKTDRVSSIENLRVSLALKNKAGAMSQQVIAFEPFGLNTQNRNLQGYKSDTLRESTLQPIYQPEFCDVDSYSVTAVTGIVNGKEMDILKAGIFL”, the protein production entry was “failed”.
